Legend:
[1] = test system: 293GP or ZR-75-1 cells; test: Morphological change by Ea-2, Ea-3, Ea-4 peptides; format: cell-based, human; conditions: 0.8 μM, 24 hours
Procedure: Approximately 1-2×10^5 of MCF-7, ZR-75-1, HT-29, HepG2, 293GP, HC or SK-N-F1 cells re-suspended in their respective basal medium without fetal bovine serum (FBS) were plated in a 6-well culture chamber. Prior to plating cells, an acid-washed coverslip was placed in each well of the culture chamber. Recombinant rainbow trout E-peptides (rtEa-2, rtEa-3 or rtEa-4 peptide at 0.8 µM), human IGF-I (hIGF-1, 2.5 nM) or the same amount of control protein was added to each well and the cell cultures were incubated at 37° C. under a humidified atmosphere of 5% CO2. The control protein was prepared from E. coli cells carrying the expression plasmid but without the E-peptide gene according to the purification method described by Tian et al. (1999). Coverslips were removed from the culture chamber 24 hours after initiation of the treatment and observed under an Olympic inverted microscope equipped with differential interference phase contrast objective lenses or phase contrast objective lens (final magnification, 200×). The morphological change assay was performed at least 10 times with different batches of Ea-4 peptide preparations.
Cells were again cultured as described above. Twenty-four hours after treatment with 0.8 µM of E-peptides or the control protein, the cells were observed under an Olympic inverted microscope equipped with differential interference phase contrast objective lenses (200× magnification). […] To confirm this hypothesis, synthetic peptides specific to Ea-1-, Ea-2-, Ea-3- and Ea-4-peptide (Ea-1sp, Ea-2sp, Ea-3sp and Ea-4sp) specific sequence (see FIG. 1) were prepared and tested for their activities to induce morphological change in ZR-75-1 cells. For FIG. 6, cells were cultured in F12/DME medium without FBS as described above. Twenty-four hours after treatment with 0.8 µM of synthetic peptide containing Ea-1 sp, Ea-2sp, Ea-3sp or Ea-4sp specific sequence or the control protein, the cells were observed under an Olympic inverted microscope equipped with differential interference phase contrast objective lenses (200× magnification).

[2] = test system: SK-N-F1 neuroblastoma cells; test: Neurite-like process outgrowth / morphological differentiation; format: cell-based, human
Procedure: Cells under various treatment conditions were maintained at 37° C. in a 5% CO2 incubator and observed from 30 minutes to 72 hours after incubation (synthetic human Ea- and Eb-peptide were chemically synthesized at the Biotechnology Center, University of Connecticut). For treatment with synthetic hEa, hEb peptide or hlGF-I, 1×10^5 cells were plated in each well of a 12-well culture plate in DMEM/F12 (1:1) supplemented with 0.4-3.2 µM of synthetic hEa-, hEb-peptide and/or 5-10 nM of hlGF-I.
Neuroblastoma SK-N-F1 cells (10^5) were seeded into 12-well culture plates in DMEM/F12 (1:1) supplemented with 0-3.2 µM of synthetic hEb-peptide, or buffer control, and incubated at 37° C. in a 5% CO2 humidified incubator.
Cell images were taken by random sampling at various time points using a MicroMAX CCD camera (Princeton Instruments, Bozeman, Mont.). Approximately 1000 cells were analyzed from each treatment, carried out in triplicate. Cells with neurites longer than one cell body diameter (>20 µm for SK-N-F1 cells) were scored as positive neurite-bearing (Fagerstrom, et al., Cell Growth Differ., 7: 775-85, 1996; Morrione, et al., Cancer Res. 60: 2263-72, 2000). The percentage of neurite-bearing cells and the respective length of neurites were measured with reference to a stage micrometer and analyzed using the public domain NIH Image program (developed at the U.S. National Institutes of Health and available on the Internet at http://rsb.info.nih.gov/nih-image).
To further characterize the dose-response relationship and time course of hEb peptide in inducing neurite-like process outgrowth, SK-N-F1 neuroblastoma cells were treated with various amounts (0 to 3.2 µM) of hEb peptide over a course of 72 hours. Images of cells were taken by random sampling after 1 h, 6 h, 24 h, 48 h and 72 h of incubation (see FIG. 11B). The average length of neurite-like process outgrowth was measured by random sampling of more than 1000 cells at various time points. The neurite-like processes started to be visible as early as 0.5-1 hour after the addition of hEb peptide. The effect of hEb peptide in inducing neurite-like outgrowth was dose-dependent, as evident from a comparison of cells treated with 0.4 µM hEb peptide with those treated with 0.8-3.2 µM hEb peptide over 24-72 hours. The maximum effect of hEb peptide was observed 48 hours after the addition of 3.2 µM hEb peptide, with an average neurite length of 50 to 60 µm (Table 1, below).

[3] = test system: MDA-MB-231 and ZR-75-1 cells; test: Colony formation of hEb cDNA transfectants; format: cell-based, human; conditions: cells transfected with hEb cDNA
Procedure: Two gene constructs, CMV-IG F-1-sp-hEb-cDNA-IRES-EGFP and CMV-IRES-EGFP were used in the transfection studies. The first construct (FIG. 9B) contained hEb peptide cDNA (with a signal peptide sequence of hlGF-1), a ribosome re-entry site (IRES) and an enhanced green fluorescence protein (EGFP) marker gene. […] The expression of both gene constructs was driven by a promoter from CMV.
Transfection of the cells was accomplished as follows. MDA-MB-231 cells were cultured in F12/DMEM supplemented with 10% FBS and 10 ng/ml of insulin to 90% confluence. About 5×10^6 cells were harvested and resuspended in 1 mL of serum-free F12/DMEM containing 20 µg of un-linearized constructs. The cells were electroporated in a BRL Cell-Porator using the following settings: low .OMEGA., 1180 micro Faraday (µF) capacitance, and two pulses at 200 volts. Following electroporation, cells were resuspended in 12 mL of fresh growth medium and seeded into a 6-well plate to recover. Permanent transfectants expressing green fluorescence protein (GFP) were enriched in a medium containing neomycin (G418) at 1 mg/mL for ten days and followed with 500 µg/mL for continuous maintenance. Individual green cell clones of transfectants were isolated from the enriched population by the method of serial dilution. […]

[4] = test system: CCD-1112SK primary baby foreskin cells
From the text: Apoptosis of cells can also be detected by terminal deoxynucleotidyl transferase mediated dUTP nick end labeling (TUNEL) assay.

B1: rtEa-4: recombinant Ea-4 peptide of rainbow trout pro-IGF-I, 74 amino acid residues (SEQ ID NO: 2) (protein)
chain: RSVRAQRHTDMPRTPKVSTAVQNVDRGTERRTAQHPDKTKTKKKPLSGHSHPSCKEVHQKNSSRGNTGGRNYRM
modifications: Oncorhynchus mykiss
[1]
  induction of morphological change: able to induce morphological change

B2: hEb: chemically synthesized human Eb peptide of pro-IGF-I, 77 amino acid residues (SEQ ID NO:1) (peptide, listed as Homo sapiens)
chain: RSVRAQRHTDMPKTQKYQPPSTNKNTKSQRRKGWPKTHPGGEQKEGTEASLQIRGKKKEQRREIGSRNAECRGKKGK
[2]; 0.4 μM, 6 h
  Neurite length: 31 ± 7.6 μm
[2]; 0.4 μM, 24 h
  Neurite length: 29 ± 5.2 μm
[2]; 0.4 μM, 48 h
  Neurite length: 35 ± 0.9 μm
[2]; 0.4 μM, 72 h
  Neurite length: 32 ± 3.1 μm
[2]; 0.8 μM, 2 h
  Neurite length: 33 ± 2.1 μm
[2]; 0.8 μM, 6 h
  Neurite length: 36 ± 0.6 μm
[2]; 0.8 μM, 24 h
  Neurite length: 38 ± 3.9 μm
[2]; 0.8 μM, 48 h
  Neurite length: 43 ± 1.0 μm
[2]; 0.8 μM, 72 h
  Neurite length: 41 ± 2.5 μm
[2]; 1.6 μM or 3.2 μM
  morphological change: differentiated into a neuron-like morphology
[2]; 1.6 μM, 6 h
  Neurite length: 38 ± 3.5 μm
[2]; 1.6 μM, 24 h
  Neurite length: 39 ± 1.8 μm
[2]; 1.6 μM, 48 h
  Neurite length: 47 ± 3.9 μm
[2]; 1.6 μM, 72 h
  Neurite length: 48 ± 2.8 μm
[2]; 3.2 μM, 6 h
  Neurite length: 39 ± 2.2 μm
[2]; 3.2 μM, 24 h
  Neurite length: 45 ± 1.7 μm
[2]; 3.2 μM, 48 h
  Neurite length: 52 ± 3.7 μm
[2]; 3.2 μM, 72 h
  Neurite length: 48 ± 2.7 μm
[2]; after addition of peptide
  time at which neurite-like processes started to be visible: 0.5 to 1 h
[2]; hEb-peptide combined with mature hIGF-I, 1-4 hours after stimulation
  increase in the percentage of neurite-bearing cells: 20-30%
[2]; synthetic peptide
  in vitro effective concentration: 0.4 to 3.2 µM
[3]
  colony formation activities: greatly reduced or diminished completely
[4]
  Apoptosis: −

Source: patent US7700353B2, “Compositions and methods for inducing apoptosis in tumor cells” (E-P Therapeutics, Inc., priority 1998, dated 2010)
